From paper PMC9651203
pKd: −log10 of the molar value.

Tests used:
[1] = molecular target: DnaK (protein used for surface plasmon resonance) (Mycoplasma fermentans); assay: SPR; BIAcore T100, 25°C, HBS-EP (10 mM HEPES, 150 mM NaCl, 0.05% surfactant P20, pH 7.4, 3 mM EDTA); DnaK (2274.9 RU) amine-coupled on CM5 chip, DnaK as analyte at 35 ul/min, 120 s association, 600 s dissociation; preliminary kinetic analysis; self-binding (homodimer by the paper's words)
[2] = molecular target: DnaK (protein used for surface plasmon resonance) (Mycoplasma fermentans); assay: SPR; BIAcore T100, 25°C, HBS-EP (10 mM HEPES, 150 mM NaCl, 0.05% surfactant P20, pH 7.4, 3 mM EDTA); DnaK (2220 RU) amine-coupled on CM5 chip, PARP1 as analyte at 35 ul/min, 250 s association, 600 s dissociation; preliminary kinetic analysis

Substance	pKd [1]	pKd [2]
DnaK (protein used for surface plasmon resonance) (natural protein)	7.53	
PARP1 (protein used for surface plasmon resonance) (from UniProt P09874 1-1014) (natural protein)		7.60
